Target: T1, RPAP1 (human, UniProt Q9BWH6 1-1393, limits assumed)
T1 sequence (looked up): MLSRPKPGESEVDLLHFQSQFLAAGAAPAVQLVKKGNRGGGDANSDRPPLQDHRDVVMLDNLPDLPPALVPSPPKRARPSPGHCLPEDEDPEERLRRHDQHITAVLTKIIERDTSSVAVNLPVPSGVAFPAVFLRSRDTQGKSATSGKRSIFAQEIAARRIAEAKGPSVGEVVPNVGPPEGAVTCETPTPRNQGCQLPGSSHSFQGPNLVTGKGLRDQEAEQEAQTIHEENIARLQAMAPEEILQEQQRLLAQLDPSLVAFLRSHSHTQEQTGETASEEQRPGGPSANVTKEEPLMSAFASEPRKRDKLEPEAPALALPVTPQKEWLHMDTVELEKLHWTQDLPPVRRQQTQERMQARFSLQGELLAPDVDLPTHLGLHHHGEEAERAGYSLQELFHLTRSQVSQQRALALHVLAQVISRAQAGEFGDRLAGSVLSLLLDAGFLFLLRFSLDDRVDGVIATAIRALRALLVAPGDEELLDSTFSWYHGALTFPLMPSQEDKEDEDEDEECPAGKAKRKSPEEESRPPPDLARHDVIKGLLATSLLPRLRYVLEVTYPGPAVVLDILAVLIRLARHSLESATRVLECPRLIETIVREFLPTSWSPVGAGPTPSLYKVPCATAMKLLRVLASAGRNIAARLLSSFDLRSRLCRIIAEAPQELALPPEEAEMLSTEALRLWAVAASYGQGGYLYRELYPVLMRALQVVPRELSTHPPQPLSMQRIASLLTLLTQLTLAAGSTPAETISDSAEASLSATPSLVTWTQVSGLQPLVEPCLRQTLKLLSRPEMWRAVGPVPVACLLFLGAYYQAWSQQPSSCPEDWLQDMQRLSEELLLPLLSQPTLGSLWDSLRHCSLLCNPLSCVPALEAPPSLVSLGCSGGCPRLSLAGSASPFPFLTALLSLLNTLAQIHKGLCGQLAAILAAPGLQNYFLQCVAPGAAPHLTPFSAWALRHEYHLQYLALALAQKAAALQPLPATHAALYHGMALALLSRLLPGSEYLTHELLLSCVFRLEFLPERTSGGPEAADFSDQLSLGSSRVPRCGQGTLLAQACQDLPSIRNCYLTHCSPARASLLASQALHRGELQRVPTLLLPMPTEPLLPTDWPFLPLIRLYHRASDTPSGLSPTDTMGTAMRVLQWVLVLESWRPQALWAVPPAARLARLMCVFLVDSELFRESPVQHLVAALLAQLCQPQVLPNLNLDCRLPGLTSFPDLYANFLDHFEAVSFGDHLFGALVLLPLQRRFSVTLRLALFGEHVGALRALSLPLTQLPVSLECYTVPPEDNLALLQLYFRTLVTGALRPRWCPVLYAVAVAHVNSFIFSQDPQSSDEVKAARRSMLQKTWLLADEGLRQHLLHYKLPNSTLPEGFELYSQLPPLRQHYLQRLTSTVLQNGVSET
Experiment: IP/MS, LZTR1 R810W-FLAG, U87
In short: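 Read-out: spectral counts from LC-MS/MS (Orbitrap Fusion) after MaxQuant identification. Variable modifications were Met oxidation, protein N-terminal acetylation and N/Q deamidation.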

B1: LZTR1 R810W-FLAG (other, human, UniProt Q8N653 1-840, looked up)
chain: MAGPGSTGGQIGAAALAGGARSKVAPSVDFDHSCSDSVEYLTLNFGPFETVHRWRRLPPCDEFVGARRSKHTVVAYKDAIYVFGGDNGKTMLNDLLRFDVKDCSWCRAFTTGTPPAPRYHHSAVVYGSSMFVFGGYTGDIYSNSNLKNKNDLFEYKFATGQWTEWKIEGRLPVARSAHGATVYSDKLWIFAGYDGNARLNDMWTIGLQDRELTCWEEVAQSGEIPPSCCNFPVAVCRDKMFVFSGQSGAKITNNLFQFEFKDKTWTRIPTEHLLRGSPPPPQRRYGHTMVAFDRHLYVFGGAADNTLPNELHCYDVDFQTWEVVQPSSDSEVGGAEVPERACASEEVPTLTYEERVGFKKSRDVFGLDFGTTSAKQPTQPASELPSGRLFHAAAVISDAMYIFGGTVDNNIRSGEMYRFQFSCYPKCTLHEDYGRLWESRQFCDVEFVLGEKEECVQGHVAIVTARSRWLRRKITQARERLAQKLEQEAAPVPREAPGVAAGGARPPLLHVAIREAEARPFEVLMQFLYTDKIKYPRKGHVEDVLLIMDVYKLALSFQLCRLEQLCRQYIEASVDLQNVLVVCESAARLQLSQLKEHCLNFVVKESHFNQVIMMKEFERLSSPLIVEIVRRKQQPPPRTPLDQPVDIGTSLIQDMKAYLEGAGAEFCDITLLLDGHPRPAHKAILAARSSYFEAMFRSFMPEDGQVNISIGEMVPSRQAFESMLRYIYYGEVNMPPEDSLYLFAAPYYYGFYNNRLQAYCKQNLEMNVTVQNVLQILEAADKTQALDMKRHCLHIIVHQFTKVSKLPTLWSLSQQLLLDIIDSLASHISDKQCAELGADI
notes: Stably expressed in U87 cells by lentivirus; also called LZTR1-FLAG-R810W; LZTR1 RW; not shown: FLAG tag
B1: binds.
